Measured values as given in FireProtDB (doi:10.1002/pro.2449).

B1: Guanyl-specific ribonuclease Sa, P05798 (parent)
chain: DVSGTVCLSALPPEATDTLNLIASDGPFPYSQDGVVFQNRESVLPTQSYGYYHEYTVITPGARTRGTRRIITGEATQEDYYTGDHYATFSLIDQTC
B2: Guanyl-specific ribonuclease T1, P00651 (parent)
chain: MMYSKLLTLTTLLLPTALALPSLVERACDYTCGSNCYSSSDVSTAQAAGYQLHEDGETVGSNSYPHKYNNYEGFDFSVSSPYYEWPILSSGDVYSGGSPGADRVVFNENNQLAGVITHTGASGNNFVECT

What was measured:
[1] = variants of: B1; conditions: Kitasatospora aureofaciens; pH 7; Thermal; DSC; MOPS; transition: 2; reversible: yes; structure 1RGG; whole UniProt chain shown
[2] = variants of: B2; conditions: Aspergillus oryzae (strain ATCC 42149 / RIB 40), pH 7, MOPS, transition: 2, reversible: yes, structure 1YGW, whole UniProt chain shown; for denaturant m value / denaturant midpoint (higher = more stable) / unfolding free energy: 25 °C, Urea; for Tm / change of melting temperature, mutant - wild type (higher = more stable) / ddG of mutation (higher = less stable) / unfolding enthalpy (calorimetric): Thermal, DSC

DVSGTVCLAALPPEATDTLNLIASDGPFPYSQDGVVFQNRESVLPTQSYGYYHEYTVITPGARTRGTRRIITGEATQEDYYTGDHYATFSLIDQTC [S9A]
change of melting temperature, mutant - wild type (higher = more stable) [1]: -4.5 °C
ddG of mutation (higher = less stable) [1]: 5.44 kJ/mol
unfolding enthalpy (calorimetric) [1]: 381 kJ/mol

DVSGTVCLSALPPEATDTLNLIASDGPFPYSQDGVVFQNRESVLPTQSYGYYHEYTVITPGARTRGTRRIITGEATQEDYYTGDHYATFSLIDQAC [T95A]
change of melting temperature, mutant - wild type (higher = more stable) [1]: -2.1 °C
ddG of mutation (higher = less stable) [1]: 2.51 kJ/mol
unfolding enthalpy (calorimetric) [1]: 406 kJ/mol

DVSGTVCLSALPPEATDTLNLIASDGPFPYAQDGVVFQNRESVLPTQSYGYYHEYTVITPGARTRGTRRIITGEATQEDYYTGDHYATFSLIDQTC [S31A]
change of melting temperature, mutant - wild type (higher = more stable) [1]: 1.5 °C
ddG of mutation (higher = less stable) [1]: -1.67 kJ/mol
unfolding enthalpy (calorimetric) [1]: 381 kJ/mol

DVSGTVCLSALPPEATDTLNLIAADGPFPYSQDGVVFQNRESVLPTQSYGYYHEYTVITPGARTRGTRRIITGEATQEDYYTGDHYATFSLIDQTC [S24A]
change of melting temperature, mutant - wild type (higher = more stable) [1]: -0.7 °C
ddG of mutation (higher = less stable) [1]: 0.837 kJ/mol
unfolding enthalpy (calorimetric) [1]: 322 kJ/mol

DVSGTVCLSALPPEATDTLALIASDGPFPYSQDGVVFQNRESVLPTQSYGYYHEYTVITPGARTRGTRRIITGEATQEDYYTGDHYATFSLIDQTC [N20A]
change of melting temperature, mutant - wild type (higher = more stable) [1]: -0.1 °C
ddG of mutation (higher = less stable) [1]: 0 kJ/mol
unfolding enthalpy (calorimetric) [1]: 372 kJ/mol

DVSGTVCLSALPPEATDTLNLIASDGPFPYSQDGVVFQARESVLPTQSYGYYHEYTVITPGARTRGTRRIITGEATQEDYYTGDHYATFSLIDQTC [N39A]
change of melting temperature, mutant - wild type (higher = more stable) [1]: -7.3 °C
ddG of mutation (higher = less stable) [1]: 8.37 kJ/mol
unfolding enthalpy (calorimetric) [1]: 276 kJ/mol

MMYSKLLTLTTLLLPTALALPSLVERACDYTCGSNCYSSSDVSTAQAAGYQLHEDGETVGSNSYPHKYNNYEGFDFSVSSPYYEWPILSSGDVYSGGSPGADRVVFNENNQLAGVIVHTGASGNNFVECT [T117V]
denaturant m value [2]: 1.24 kcal/mol/M
denaturant midpoint (higher = more stable) [2]: 2.07 M
unfolding free energy [2]: 10.9 kJ/mol
Tm [2]: 40.7 °C
change of melting temperature, mutant - wild type (higher = more stable) [2]: -11.8 °C
ddG of mutation (higher = less stable) [2]: 15.1 kJ/mol
unfolding enthalpy (calorimetric) [2]: 397 kJ/mol

MMYSKLLTLTTLLLPTALALPSLVERACDYTCGSNCYSSSDVSTAQAAGYQLHEDGETVGSNSYPHKYNNYEGFDFSVSSPYYEWPILSSGDVYSGGSPGADRVVFNENNQLAGVIAHTGASGNNFVECT [T117A]
denaturant m value [2]: 1.25 kcal/mol/M
denaturant midpoint (higher = more stable) [2]: 2.32 M
unfolding free energy [2]: 12.1 kJ/mol
Tm [2]: 41.9 °C
change of melting temperature, mutant - wild type (higher = more stable) [2]: -10.6 °C
ddG of mutation (higher = less stable) [2]: 13.4 kJ/mol
unfolding enthalpy (calorimetric) [2]: 410 kJ/mol

MMYSKLLTLTTLLLPTALALPSLVERACDYTCGSNCYSSSDVSTAQAAGYQLHEDGETVGSNSYPHKYNNYEGFDFSVSSPYYEWPILSSGDVYSGGSPGADRVVFNENNQLAGVITHVGASGNNFVECT [T119V]
denaturant m value [2]: 1.2 kcal/mol/M
denaturant midpoint (higher = more stable) [2]: 4.16 M
unfolding free energy [2]: 20.9 kJ/mol
Tm [2]: 49.3 °C
change of melting temperature, mutant - wild type (higher = more stable) [2]: -3.2 °C
ddG of mutation (higher = less stable) [2]: 4.18 kJ/mol
unfolding enthalpy (calorimetric) [2]: 406 kJ/mol

MMYSKLLTLTTLLLPTALALPSLVERACDYTCGSNCYSSSDVSTAQAAGYQLHEDGETVGSNSYPHKYNNYEGFDFSVSSPYYEWPILSSGDVYSGGSPGADRVVFNENNQLAGVITHAGASGNNFVECT [T119A]
denaturant m value [2]: 0.91 kcal/mol/M
denaturant midpoint (higher = more stable) [2]: 4.46 M
unfolding free energy [2]: 17.2 kJ/mol
Tm [2]: 50.2 °C
change of melting temperature, mutant - wild type (higher = more stable) [2]: -2.3 °C
ddG of mutation (higher = less stable) [2]: 2.93 kJ/mol
unfolding enthalpy (calorimetric) [2]: 435 kJ/mol

MMYSKLLTLTTLLLPTALALPSLVERACDYTCGSNCYSSSDVSTAQAAGYQLHEDGETVGSNSYPHKYNNYEGFDFSVSSPYYEWPILSSGDVYSGGSPGADRVVFNENNQLAGVIAHVGASGNNFVECT [T117A T119V]
denaturant m value [2]: 1.21 kcal/mol/M
denaturant midpoint (higher = more stable) [2]: 2.35 M
unfolding free energy [2]: 12.1 kJ/mol
Tm [2]: 41.4 °C
change of melting temperature, mutant - wild type (higher = more stable) [2]: -11 °C
ddG of mutation (higher = less stable) [2]: 14.2 kJ/mol
unfolding enthalpy (calorimetric) [2]: 377 kJ/mol

MMYSKLLTLTTLLLPTALALPSLVERACDYTCGSNCYSSSDVSTAQAAGYQLHEDGETVGSNSYPHKYNNYEGFDFSVSSPYYEWPILSSGDVYSGGSPGADRVVFNENNQLAGVIAHAGASGNNFVECT [T117A T119A]
denaturant m value [2]: 1.21 kcal/mol/M
denaturant midpoint (higher = more stable) [2]: 1.9 M
unfolding free energy [2]: 9.62 kJ/mol
Tm [2]: 40.5 °C
change of melting temperature, mutant - wild type (higher = more stable) [2]: -12 °C
ddG of mutation (higher = less stable) [2]: 15.5 kJ/mol
unfolding enthalpy (calorimetric) [2]: 402 kJ/mol

MMYSKLLTLTTLLLPTALALPSLVERACDYTCGSNCYSSSDVSTAQAAGYQLHEDGETVGSNSYPHKYNNYEGFDFSVSSPYYEWPILSSGDVYSGGSPGADRVVFNENNQLAGVIVHAGASGNNFVECT [T117V T119A]
denaturant m value [2]: 1.33 kcal/mol/M
denaturant midpoint (higher = more stable) [2]: 1.9 M
unfolding free energy [2]: 10.5 kJ/mol
Tm [2]: 38.5 °C
change of melting temperature, mutant - wild type (higher = more stable) [2]: -14 °C
ddG of mutation (higher = less stable) [2]: 18 kJ/mol
unfolding enthalpy (calorimetric) [2]: 385 kJ/mol

MMYSKLLTLTTLLLPTALALPSLVERACDYTCGSNCYSSSDVSTAQAAGYQLHEDGETVGSNSYPHKYNNYEGFDFSVSSPYYEWPILSSGDVYSGGSPGADRVVFNENNQLAGVIVHVGASGNNFVECT [T117V T119V]
denaturant m value [2]: 1.32 kcal/mol/M
denaturant midpoint (higher = more stable) [2]: 2.19 M
unfolding free energy [2]: 12.1 kJ/mol
